We go through 31 molecules from article PMC6555819, “Comprehensive study of nuclear receptor DNA binding provides a revised framework for understanding receptor specificity”.

B1: NRC3_wobSeed73_DR3_A23G_o1 (dsDNA)
DNA 1: GCCAAACTAGGTCACAGAGGTCGAAGTCCGTGCGTAGCGATTGACAGCGTAGAATGAAGG
DNA 2: CCTTCATTCTACGCTGTCAATCGCTACGCACGGACTTCGACCTCTGTGACCTAGTTTGGC
B2: NRC3_wobSeed9_DR0_T17G_o1 (dsDNA)
DNA 1: GCATCTCTAGGTAAAGGTCAGTGAAAGATCGATAGAGCGATTGACAGCGTAGAATGAAGG
DNA 2: CCTTCATTCTACGCTGTCAATCGCTCTATCGATCTTTCACTGACCTTTACCTAGAGATGC
B3: NRC3_wobSeed99_DR4_G27A_o1 (dsDNA)
DNA 1: GCTCTCGGAGGACACGAAAGGTCAGAACTCGACATCGCGATTGACAGCGTAGAATGAAGG
DNA 2: CCTTCATTCTACGCTGTCAATCGCGATGTCGAGTTCTGACCTTTCGTGTCCTCCGAGAGC
B4: NRC3_wobSeed137_DR5_T13A_o1 (dsDNA)
DNA 1: GCATATGTAGGTAACATCCGGGTCATTCAGGCTATGGCGATTGACAGCGTAGAATGAAGG
DNA 2: CCTTCATTCTACGCTGTCAATCGCCATAGCCTGAATGACCCGGATGTTACCTACATATGC
B5: NRC3_wobSeed138_DR5_T5C_o1 (dsDNA)
DNA 1: GCGACACAGGGTCAGCTAGAGGCCAGAGTATGGAAAGCGATTGACAGCGTAGAATGAAGG
DNA 2: CCTTCATTCTACGCTGTCAATCGCTTTCCATACTCTGGCCTCTAGCTGACCCTGTGTCGC
B6: NRC3_wobSeed138_DR5_A6C_o1 (dsDNA)
DNA 1: GCGATCCAGGGTCAGCTAGAGGCCAGAGTATGGAAAGCGATTGACAGCGTAGAATGAAGG
DNA 2: CCTTCATTCTACGCTGTCAATCGCTTTCCATACTCTGGCCTCTAGCTGACCCTGGATCGC
B7: NRC3_wobSeed118_DR4_C7A_o1 (dsDNA)
DNA 1: GCTTACAAAGGTGAGCTGAGGTCGTTGATCCAACTCGCGATTGACAGCGTAGAATGAAGG
DNA 2: CCTTCATTCTACGCTGTCAATCGCGAGTTGGATCAACGACCTCAGCTCACCTTTGTAAGC
B8: NRC3_wobSeed117_DR4_G26T_o1 (dsDNA)
DNA 1: GCCGTCAAAGTTCAACTAAGGTAACTTAAAGCACGCGCGATTGACAGCGTAGAATGAAGG
DNA 2: CCTTCATTCTACGCTGTCAATCGCGCGTGCTTTAAGTTACCTTAGTTGAACTTTGACGGC
B9: NRC3_wobSeed117_DR4_G20T_o1 (dsDNA)
DNA 1: GCCGTCAAAGTTCAACTAATGTAACGTAAAGCACGCGCGATTGACAGCGTAGAATGAAGG
DNA 2: CCTTCATTCTACGCTGTCAATCGCGCGTGCTTTACGTTACATTAGTTGAACTTTGACGGC
B10: NRC3_wobSeed130_DR5_T15A_o1 (dsDNA)
DNA 1: GCCTCGAAAGGTCGAGCTCAGGTGAGTATACCAAACGCGATTGACAGCGTAGAATGAAGG
DNA 2: CCTTCATTCTACGCTGTCAATCGCGTTTGGTATACTCACCTGAGCTCGACCTTTCGAGGC
B11: NRC3_wobSeed40_DR1_T15C_o1 (dsDNA)
DNA 1: GCTAGCCTAGGTCACGGGCCAGTATACCACGCGAACGCGATTGACAGCGTAGAATGAAGG
DNA 2: CCTTCATTCTACGCTGTCAATCGCGTTCGCGTGGTATACTGGCCCGTGACCTAGGCTAGC
B12: NRC3_wobSeed40_DR1_A24T_o1 (dsDNA)
DNA 1: GCTAGCCTAGGTCATGGGCCAGTTTACCACGCGAACGCGATTGACAGCGTAGAATGAAGG
DNA 2: CCTTCATTCTACGCTGTCAATCGCGTTCGCGTGGTAAACTGGCCCATGACCTAGGCTAGC
B13: NRC3_wobSeed10_DR0_G6C_o1 (dsDNA)
DNA 1: GCATCCAAAGGTCGAGGTGAGTATAGAGAAAGGGAAGCGATTGACAGCGTAGAATGAAGG
DNA 2: CCTTCATTCTACGCTGTCAATCGCTTCCCTTTCTCTATACTCACCTCGACCTTTGGATGC
B14: NRC3_wobSeed125_DR5_A7G_o1 (dsDNA)
DNA 1: GCCCTTGCGGGTCACTGACAGGTTATAGCATTTGGAGCGATTGACAGCGTAGAATGAAGG
DNA 2: CCTTCATTCTACGCTGTCAATCGCTCCAAATGCTATAACCTGTCAGTGACCCGCAAGGGC
B15: NRC3_wobSeed142_DR5_G13T_o1 (dsDNA)
DNA 1: GCATACCAAGGTTATCGTGAGGTCGTTGATACTAACGCGATTGACAGCGTAGAATGAAGG
DNA 2: CCTTCATTCTACGCTGTCAATCGCGTTAGTATCAACGACCTCACGATAACCTTGGTATGC
B16: NRC3_wobSeed121_DR5_G21A_o1 (dsDNA)
DNA 1: GCCAAACTAGGTCACCGGAAAGTCAAAGTCCGCATGGCGATTGACAGCGTAGAATGAAGG
DNA 2: CCTTCATTCTACGCTGTCAATCGCCATGCGGACTTTGACTTTCCGGTGACCTAGTTTGGC
B17: NRC3_wobSeed36_DR1_T25C_o1 (dsDNA)
DNA 1: GCCCGACTGGGGCAAAGGTTACCACACTCAGTACGAGCGATTGACAGCGTAGAATGAAGG
DNA 2: CCTTCATTCTACGCTGTCAATCGCTCGTACTGAGTGTGGTAACCTTTGCCCCAGTCGGGC
B18: NRC3_wobSeed89_DR3_C22T_o1 (dsDNA)
DNA 1: GCCTATGTAGGTTAAGGGGGTTATTCAGTTTGAAAGGCGATTGACAGCGTAGAATGAAGG
DNA 2: CCTTCATTCTACGCTGTCAATCGCCTTTCAAACTGAATAACCCCCTTAACCTACATAGGC
B19: NRC3_wobSeed58_DR2_A22T_o1 (dsDNA)
DNA 1: GCATCGAAAGGTCGTGAGGTGTGTATACAGAAAGGCGCGATTGACAGCGTAGAATGAAGG
DNA 2: CCTTCATTCTACGCTGTCAATCGCGCCTTTCTGTATACACACCTCACGACCTTTCGATGC
B20: NRC3_wobSeed120_DR4_A6C_o1 (dsDNA)
DNA 1: GCCCGCGTAGGTTACGAGGGGGCATTCAGTGCGAATGCGATTGACAGCGTAGAATGAAGG
DNA 2: CCTTCATTCTACGCTGTCAATCGCATTCGCACTGAATGCCCCCTCGTAACCTACGCGGGC
B21: NRC3_wobSeed47_DR1_T18G_o1 (dsDNA)
DNA 1: GCGGAACGAGGGCAAAGGTGATAGCATCTGTCGACGGCGATTGACAGCGTAGAATGAAGG
DNA 2: CCTTCATTCTACGCTGTCAATCGCCGTCGACAGATGCTATCACCTTTGCCCTCGTTCCGC
B22: NRC3_wobSeed85_DR3_G17T_o1 (dsDNA)
DNA 1: GCCGTCCAAGGTCAGATAGGTCAGTGAATGCCGAGTGCGATTGACAGCGTAGAATGAAGG
DNA 2: CCTTCATTCTACGCTGTCAATCGCACTCGGCATTCACTGACCTATCTGACCTTGGACGGC
B23: NRC3_wobSeed32_DR1_A25C_o1 (dsDNA)
DNA 1: GCTCTTGTAGATCAAAGGTTAAGACAGCCGAAGCCTGCGATTGACAGCGTAGAATGAAGG
DNA 2: CCTTCATTCTACGCTGTCAATCGCAGGCTTCGGCTGTCTTAACCTTTGATCTACAAGAGC
B24: NRC3_wobSeed93_DR3_A8G_o1 (dsDNA)
DNA 1: GCAGTCAGAGTTCATCTAGGTAACGTAAGATATGCTGCGATTGACAGCGTAGAATGAAGG
DNA 2: CCTTCATTCTACGCTGTCAATCGCAGCATATCTTACGTTACCTAGATGAACTCTGACTGC
B25: NRC3_wobSeed93_DR3_A18T_o1 (dsDNA)
DNA 1: GCAGTCAAAGTTCATCTTGGTAACGTAAGATATGCTGCGATTGACAGCGTAGAATGAAGG
DNA 2: CCTTCATTCTACGCTGTCAATCGCAGCATATCTTACGTTACCAAGATGAACTTTGACTGC
B26: NRC3_wobSeed5_DR0_T19A_o1 (dsDNA)
DNA 1: GCCCTTACGGGTCAAGGTAATAGCACGGGTGGTACGGCGATTGACAGCGTAGAATGAAGG
DNA 2: CCTTCATTCTACGCTGTCAATCGCCGTACCACCCGTGCTATTACCTTGACCCGTAAGGGC
B27: NRC3_wobSeed6_DR0_T22C_o1 (dsDNA)
DNA 1: GCCCTAGCAGGCCAGGGTCACCCAAGCATTTCGCTTGCGATTGACAGCGTAGAATGAAGG
DNA 2: CCTTCATTCTACGCTGTCAATCGCAAGCGAAATGCTTGGGTGACCCTGGCCTGCTAGGGC
B28: NRC3_wobSeed43_DR1_C8A_o1 (dsDNA)
DNA 1: GCCCAGAAAGGTGAAAGGTAACTCAGTCTGGTACGCGCGATTGACAGCGTAGAATGAAGG
DNA 2: CCTTCATTCTACGCTGTCAATCGCGCGTACCAGACTGAGTTACCTTTCACCTTTCTGGGC
B29: NRC3_wobSeed136_DR5_T27A_o1 (dsDNA)
DNA 1: GCTAGCCTAGGTCATTCAGGGGCCAGAATAGAAAGCGCGATTGACAGCGTAGAATGAAGG
DNA 2: CCTTCATTCTACGCTGTCAATCGCGCTTTCTATTCTGGCCCCTGAATGACCTAGGCTAGC
B30: NRC3_wobSeed66_DR2_A22C_o1 (dsDNA)
DNA 1: GCAATACAGGGTCACTAGGCCCGAGTAGGTACGAATGCGATTGACAGCGTAGAATGAAGG
DNA 2: CCTTCATTCTACGCTGTCAATCGCATTCGTACCTACTCGGGCCTAGTGACCCTGTATTGC
B31: NRC3_wobSeed2_DR0_T12C_o1 (dsDNA)
DNA 1: GCCCTAGTTGGCCAAGGTCACACACGCTATAGGTACGCGATTGACAGCGTAGAATGAAGG
DNA 2: CCTTCATTCTACGCTGTCAATCGCGTACCTATAGCGTGTGTGACCTTGGCCAACTAGGGC

RARa:RXRa, sequence (P10276 whole entry, chain 1 of 2): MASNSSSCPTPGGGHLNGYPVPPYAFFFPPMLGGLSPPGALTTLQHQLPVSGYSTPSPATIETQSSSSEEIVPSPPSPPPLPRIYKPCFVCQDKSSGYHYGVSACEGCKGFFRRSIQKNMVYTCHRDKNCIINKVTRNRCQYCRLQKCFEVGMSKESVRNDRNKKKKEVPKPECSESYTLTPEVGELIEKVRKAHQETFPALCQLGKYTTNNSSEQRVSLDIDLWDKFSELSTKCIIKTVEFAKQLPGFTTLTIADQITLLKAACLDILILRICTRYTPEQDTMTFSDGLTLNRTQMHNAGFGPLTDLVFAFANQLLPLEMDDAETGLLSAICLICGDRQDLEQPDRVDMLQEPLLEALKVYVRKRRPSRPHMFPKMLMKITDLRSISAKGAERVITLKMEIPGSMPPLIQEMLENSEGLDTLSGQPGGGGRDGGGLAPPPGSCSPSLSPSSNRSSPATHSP
RARa:RXRa, sequence (P19793 whole entry, chain 2 of 2): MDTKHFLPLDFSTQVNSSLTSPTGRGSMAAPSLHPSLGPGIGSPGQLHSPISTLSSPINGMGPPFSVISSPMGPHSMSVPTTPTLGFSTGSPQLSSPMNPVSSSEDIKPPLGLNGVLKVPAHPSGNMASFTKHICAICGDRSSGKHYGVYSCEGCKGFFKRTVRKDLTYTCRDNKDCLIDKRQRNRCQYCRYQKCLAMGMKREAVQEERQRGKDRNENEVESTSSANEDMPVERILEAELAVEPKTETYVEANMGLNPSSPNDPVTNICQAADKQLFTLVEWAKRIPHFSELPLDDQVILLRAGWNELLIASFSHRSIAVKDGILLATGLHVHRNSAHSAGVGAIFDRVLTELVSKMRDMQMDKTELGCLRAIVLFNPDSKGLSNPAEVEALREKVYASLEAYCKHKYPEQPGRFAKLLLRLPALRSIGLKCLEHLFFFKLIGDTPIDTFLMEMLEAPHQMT

This data set has as its target RARa:RXRa (Homo sapiens, UniProt P10276;P19793 full;full). The data set can be described thus: no ligand; PBM; 270 nM : 90 nM RXRa; PBS pH 7.4, 2% milk, 0.02% Triton X-100, 1 mM DTT, BSA, 0.4 mg/ml salmon testes DNA. Particulars: tags: His kept;His cleaved; copies: 1;1; label: surface-attached array probe. The procedure, abridged:
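For binding z-scores, the reference was random background probes on custom Agilent 4×180K protein-binding microarrays. These arrays were incubated 1 h with ligand-free nuclear receptor dimers in PBS pH 7.4, 2% milk, 0.02% Triton X-100, 1 mM DTT, 0.2 mg/mL BSA and 0.4 mg/ml salmon testes DNA. Fluorescence was scanned after antibody detection of each partner (one per run) and regression-normalized.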
For the molecule B1, the binding signal is 4.06 PBM z-score against 500 random probes.

In the case of B2, the binding signal is 4.31 PBM z-score against 500 random probes.

For the molecule B3, the binding signal was 4.35 PBM z-score against 500 random probes.

As to B4, the binding signal is 3.23 PBM z-score against 500 random probes.

Regarding B5, the binding signal was 4.25 PBM z-score against 500 random probes.

In the case of B6, the binding signal was 4.15 PBM z-score against 500 random probes.

Take B7: the binding signal was 3.12 PBM z-score against 500 random probes.

Take B8: the binding signal is 4.28 PBM z-score against 500 random probes.

For B9, the binding signal is 4.13 PBM z-score against 500 random probes.

Take B10: the binding signal is 3.92 PBM z-score against 500 random probes.

Consider B11, for which the binding signal is 3.59 PBM z-score against 500 random probes.

Consider B12, for which the binding signal is 3.16 PBM z-score against 500 random probes.

B13: the binding signal is 3.47 PBM z-score against 500 random probes.

As to B14, the binding signal was 4.21 PBM z-score against 500 random probes.

As for B15, the binding signal is 3.65 PBM z-score against 500 random probes.

B16: the binding signal is 3.41 PBM z-score against 500 random probes.

For B17, the binding signal was 3.7 PBM z-score against 500 random probes.

As for B18, the binding signal was 3.33 PBM z-score against 500 random probes.

For B19, the binding signal is 4.09 PBM z-score against 500 random probes.

B20: the binding signal is 3.19 PBM z-score against 500 random probes.

For the molecule B21, the binding signal is 3.09 PBM z-score against 500 random probes.

For B22, the binding signal was 4.18 PBM z-score against 500 random probes.

For the molecule B23, the binding signal was 3.05 PBM z-score against 500 random probes.

Consider B24, for which the binding signal is 3.62 PBM z-score against 500 random probes.

Regarding B25, the binding signal was 3.45 PBM z-score against 500 random probes.

B26: the binding signal was 3.77 PBM z-score against 500 random probes.

For B27, the binding signal is 3.89 PBM z-score against 500 random probes.

For the molecule B28, the binding signal is 3.8 PBM z-score against 500 random probes.

B29: the binding signal is 3.51 PBM z-score against 500 random probes.

Take B30: the binding signal was 3.99 PBM z-score against 500 random probes.

On to B31, for which the binding signal was 3.86 PBM z-score against 500 random probes.
